Substitutions are numbered along the chain they refer to. Blank lines part the entries; values can stand above or below the binder they belong to.
Tests used:
Rab27A = target: T1, Rab27A (Homo sapiens (Human), UniProt P51159); test: ITC
T1 chain: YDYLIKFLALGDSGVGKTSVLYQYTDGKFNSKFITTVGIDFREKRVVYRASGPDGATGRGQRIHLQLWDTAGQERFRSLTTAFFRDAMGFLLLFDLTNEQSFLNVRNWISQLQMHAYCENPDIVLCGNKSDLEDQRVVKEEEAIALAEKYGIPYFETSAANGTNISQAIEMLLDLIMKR

Rab3D = target: T2, Rab3D (Homo sapiens (Human), UniProt O95716); test: ITC
T2 chain: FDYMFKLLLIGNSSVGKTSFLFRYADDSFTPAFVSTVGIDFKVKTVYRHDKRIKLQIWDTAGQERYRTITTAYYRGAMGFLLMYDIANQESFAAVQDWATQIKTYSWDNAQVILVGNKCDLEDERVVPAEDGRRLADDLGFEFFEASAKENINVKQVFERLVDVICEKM

Rab3A = target: T3, Rab3A (Homo sapiens (Human), UniProt P20336); test: ITC
T3 chain: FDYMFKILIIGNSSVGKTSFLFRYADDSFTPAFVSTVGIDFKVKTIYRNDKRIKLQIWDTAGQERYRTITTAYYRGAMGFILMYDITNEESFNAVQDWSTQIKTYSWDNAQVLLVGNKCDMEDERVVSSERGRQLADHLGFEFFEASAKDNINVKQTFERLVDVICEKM

Rab3B = target: T4, Rab3B (Homo sapiens (Human), UniProt P20337); test: ITC
T4 chain: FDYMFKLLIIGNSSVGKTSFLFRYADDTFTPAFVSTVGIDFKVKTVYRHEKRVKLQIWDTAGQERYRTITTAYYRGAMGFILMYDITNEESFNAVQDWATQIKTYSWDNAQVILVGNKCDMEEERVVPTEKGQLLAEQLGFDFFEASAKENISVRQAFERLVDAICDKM

[1] = target: T5, Rep15, full length (natural N101D variant) (human, UniProt Q6BDI9 1-236, N101D); test: stopped-flow fluorescence intensity; association; 0.5 µM mant-GppNHp Rab3A mixed with increasing Rep15 (2–14 µM); 25 °C; 20 mM Hepes 8.0, 50 mM NaCl, 1 mM MgCl2, 2 mM DTE; koff from the intercept, KD as koff/kon; conditions: both partners purified
T5 construct: also called full-length Rep15; Rab15 effector protein
T5 sequence (looked up): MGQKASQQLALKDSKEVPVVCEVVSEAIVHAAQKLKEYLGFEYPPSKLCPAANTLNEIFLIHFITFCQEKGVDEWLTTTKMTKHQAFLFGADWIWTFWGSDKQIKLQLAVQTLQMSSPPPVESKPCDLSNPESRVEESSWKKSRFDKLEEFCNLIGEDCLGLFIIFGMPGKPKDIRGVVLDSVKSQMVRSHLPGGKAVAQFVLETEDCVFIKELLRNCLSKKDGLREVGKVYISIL

Rep15 W140A [2] = target: T6, Rep15 W140A (human, UniProt Q6BDI9 1-236, N101D | W140A); test: ITC; 500/600 µM GppNHp/GTP Rab titrated into 50/60 µM Rep15; 20 mM Hepes 8.0, 50 mM NaCl, 1 mM MgCl2, 1 mM TCEP; one-site-binding model; conditions: both partners purified
T6 construct: source: E. coli BL21 Codon-Plus(DE3)-RIL, purified
T6 sequence: T5 sequence (looked up) with W140A

Rep15 D158A [3] = target: T7, Rep15 D158A (human, UniProt Q6BDI9 1-236, N101D | D158A); test: as above; conditions: both partners purified
T7 construct: Limits probably as full-length wild type; source: E. coli BL21 Codon-Plus(DE3)-RIL, purified
T7 sequence: T5 sequence (looked up) with D158A

Rep15 Q85A [4] = target: T8, Rep15 Q85A (human, UniProt Q6BDI9 1-236, N101D | Q85A); test: as above; conditions: both partners purified
T8 construct: Limits probably as full-length wild type; source: E. coli BL21 Codon-Plus(DE3)-RIL, purified
T8 sequence: T5 sequence (looked up) with Q85A

Rep15 H84A = target: T9, Rep15 H84A (human, UniProt Q6BDI9 1-236, N101D | H84A); test: as above; conditions: both partners purified
T9 construct: Limits probably as full-length wild type; source: E. coli BL21 Codon-Plus(DE3)-RIL, purified
T9 sequence: T5 sequence (looked up) with H84A

Rep15 L88A [5] = target: T10, Rep15 L88A (human, UniProt Q6BDI9 1-236, N101D | L88A); test: as above; conditions: both partners purified
T10 construct: Limits probably as full-length wild type; source: E. coli BL21 Codon-Plus(DE3)-RIL, purified
T10 sequence: T5 sequence (looked up) with L88A

Rep15 V135A = target: T11, Rep15 V135A (human, UniProt Q6BDI9 1-236, N101D | V135A); test: as above; conditions: both partners purified
T11 construct: source: E. coli BL21 Codon-Plus(DE3)-RIL, purified
T11 sequence: T5 sequence (looked up) with V135A

Rep15 W140A [6] = target: T12, Rep15 W140A (human, UniProt Q6BDI9 1-236, N101D | W140A); test: ITC
T12 sequence: T5 sequence (looked up) with W140A

Rep15 Q85A [7] = target: T13, Rep15 Q85A (human, UniProt Q6BDI9 1-236, N101D | Q85A); test: ITC
T13 sequence: T5 sequence (looked up) with Q85A

Rep15 D158A [8] = target: T14, Rep15 D158A (human, UniProt Q6BDI9 1-236, N101D | D158A); test: ITC
T14 sequence: T5 sequence (looked up) with D158A

Rep15 L88A [9] = target: T15, Rep15 L88A (human, UniProt Q6BDI9 1-236, N101D | L88A); test: ITC
T15 sequence: T5 sequence (looked up) with L88A

Kd (Rab27A): 86200 nM | Kd (Rab3D): 790 nM | Kd (Rab3A): 480 nM | Kd (Rab3B): 2160 nM
B1: Rep15 (protein)
chain: VPVVCEVVSEAIVHAAQKLKEYLGFEYPPSKLCPAANTLNEIFLIHFITFCQEKGVDEWLTTTKMTKHQAFLFGADWIWTFWGSNKQIKLQLAVQTLQMSSPPPVESKPCDLSNPESRVEESSWKKSRFDKLEEFCNLIGEDCLGLFIIFGMPGKPKDIRGVVLDSVKSQMVRSHLPGGKAVAQFVLETEDCVFIKELLRNCLSKKDGLREVGKVYISIL

Kd [1]: 440 to 530 nM | koff [1]: 4.29 s⁻¹ | kon [1]: 9.72e+06 M⁻¹ s⁻¹ | binding result (Rep15 W140A [2]): binds | fold reduction in affinity against wild-type Rep15 (Rep15 D158A [3]): 12 fold | fold reduction in affinity against wild-type Rep15 (Rep15 Q85A [4]): > 30 fold | binding result (Rep15 H84A): binds | fold reduction in affinity against wild-type Rep15 (Rep15 L88A [5]): 20 fold | binding result (Rep15 V135A): binds | Kd (Rep15 W140A [6]): 400 nM | Kd (Rep15 Q85A [7]): 18500 nM | Kd (Rep15 D158A [8]): 5590 nM | Kd (Rep15 L88A [9]): 9700 nM
B2: Rab3A, purified, nucleotide-loaded (natural protein, human, UniProt P20336 1-220, looked up)
chain: MASATDSRYGQKESSDQNFDYMFKILIIGNSSVGKTSFLFRYADDSFTPAFVSTVGIDFKVKTIYRNDKRIKLQIWDTAGQERYRTITTAYYRGAMGFILMYDITNEESFNAVQDWSTQIKTYSWDNAQVLLVGNKCDMEDERVVSSERGRQLADHLGFEFFEASAKDNINVKQTFERLVDVICEKMSESLDTADPAVTGAKQGPQLSDQQVPPHQDCAC
notes: Rab3A, human; Loaded with GppNHp (aSEC, ITC) or mant-GppNHp (stopped flow); also called Rab3A_(GppNHp); Rab3A_(mantGppNHp); source: E. coli BL21 Codon-Plus (DE3)-RIL, purified (Ni Sepharose, TEV cleavage, gel filtration)

Reference: PMC9308819 (Nature Communications, 2022)
